A word on the Kd: it is a measure of binding affinity in units of concentration. In general, IC50 refers to the midpoint of a concentration-inhibition curve. A higher IC50 goes with weaker potency.

Kd and IC50 data for 24 sequences are collected here from the Immune Epitope Database (IEDB).

One experiment deals with HLA-B*08:02. As to the kind of experiment: IEDB peptide-MHC binding, purified MHC/direct/fluorescence; filed as Kd, often an IC50 or EC50 that approximates it; ≥ and ≤ were set here for values at or beyond the usual limits of such assays.
Experiment [1] concerns the target HLA-A*03:01. As to the kind of experiment: IEDB peptide-MHC binding, purified MHC/competitive/fluorescence; ≥ and ≤ were set here for values at or beyond the usual limits of such assays. The following applies: source organism: Zaire ebolavirus.
The next experiment concerns the target HLA-A*11:01. Described as above. The settings on record: source organism: Zaire ebolavirus.
Another experiment concerns the target HLA-B*07:02. Described as above. The settings on record: source organism: Zaire ebolavirus.
The target in experiment [2] is HLA-A*03:01. As to the kind of experiment: IEDB peptide-MHC binding, purified MHC/competitive/fluorescence; filed as Kd, often an IC50 or EC50 that approximates it; ≥ and ≤ were set here for values at or beyond the usual limits of such assays. The following applies: source organism: Yersinia pestis Nepal516.
The target of a further experiment is HLA-B*58:01. The description is as above.
For experiment [3], the target named is HLA-A*01:01. The description is as above. The settings on record: source organism: Yersinia pestis Nepal516.
Experiment [4] deals with HLA-A*26:01. The experiment is described as above.
Experiment [5] concerns the target HLA-B*15:01. Described as above. The following applies: source organism: Yersinia pestis Nepal516.
In experiment [6] the target is HLA-A*02:01. The experiment in a line: IEDB peptide-MHC binding, purified MHC/competitive/radioactivity; filed as Kd, often an IC50 or EC50 that approximates it; ≥ and ≤ were set here for values at or beyond the usual limits of such assays.
The target in the next experiment is HLA-A*02:17. The experiment is described as above.
A further experiment deals with HLA-A*32:01. The experiment is described as above. The following applies: source organism: Dengue virus 3 Singapore/8120/1995.
In another experiment the target is HLA-A*02:06. The experiment is described as above.
The target of experiment [7] is HLA-A*02:03. The experiment is described as above.
Another experiment deals with HLA-B*40:01. The experiment in a line: IEDB peptide-MHC binding, purified MHC/competitive/fluorescence; filed as Kd, often an IC50 or EC50 that approximates it; ≥ and ≤ were set here for values at or beyond the usual limits of such assays.
In another experiment the target is HLA-B*39:01. Described as above.
A further experiment has as its target HLA-B*15:17. The description is as above. The settings on record: source organism: Neembucu hantavirus.
In another experiment the target is HLA-B*51:01. The experiment is described as above. The following applies: source organism: Neembucu hantavirus.
Experiment [8] concerns the target HLA-A*02:01. Described as above.
Another experiment concerns the target HLA-B*27:03. Described as above. The settings on record: source organism: Neembucu hantavirus.
The target in a further experiment is HLA-B*57:01. The description is as above. The following applies: source organism: Neembucu hantavirus.
A further experiment has as its target HLA-B*18:01. Described as above. The following applies: source organism: Neembucu hantavirus.
A further experiment addresses HLA-B*46:01. The description is as above. The following applies: source organism: Neembucu hantavirus.
Experiment [9] concerns the target HLA-A*03:01. As to the kind of experiment: IEDB peptide-MHC binding, purified MHC/direct/fluorescence; filed as Kd, often an IC50 or EC50 that approximates it; ≥ and ≤ were set here for values at or beyond the usual limits of such assays. The settings on record: source organism: Lechiguanas virus.
The target in a further experiment is HLA-A*23:01. The description is as above. The settings on record: source organism: Lechiguanas virus.
The next experiment has as its target HLA-A*24:03. The experiment is described as above. The settings on record: source organism: Lechiguanas virus.
The target in the next experiment is HLA-A*02:12. The description is as above. The settings on record: source organism: Lechiguanas virus.
Experiment [10] has as its target HLA-A*01:01. The experiment is described as above. The following applies: source organism: Neembucu hantavirus.
Another experiment has as its target HLA-A*68:02. The experiment is described as above. The following applies: source organism: Lechiguanas virus.
A further experiment deals with HLA-A*02:19. The experiment is described as above. The settings on record: source organism: Lechiguanas virus.
Experiment [11] concerns the target HLA-A*02:03. The experiment is described as above. The following applies: source organism: Lechiguanas virus.
The target of a further experiment is HLA-A*24:02. As to the kind of experiment: IEDB peptide-MHC binding, purified MHC/competitive/fluorescence; ≥ and ≤ were set here for values at or beyond the usual limits of such assays. The following applies: source organism: Zaire ebolavirus.
Experiment [12] concerns the target HLA-A*02:01. Described as above. The following applies: source organism: Zaire ebolavirus.
Another experiment deals with HLA-C*06:02. The experiment in a line: IEDB peptide-MHC binding, purified MHC/direct/fluorescence; filed as Kd, often an IC50 or EC50 that approximates it; ≥ and ≤ were set here for values at or beyond the usual limits of such assays. The following applies: source organism: Burkholderia mallei ATCC 23344.
For the next experiment, the target named is HLA-B*08:01. The experiment in a line: IEDB peptide-MHC binding, purified MHC/competitive/radioactivity; filed as Kd, often an IC50 or EC50 that approximates it; ≥ and ≤ were set here for values at or beyond the usual limits of such assays.
In experiment [13] the target is HLA-B*15:01. The description is as above. The following applies: source organism: Dengue virus 3 Martinique/1243/1999.
In experiment [14] the target is HLA-A*26:01. Described as above. The following applies: source organism: Dengue virus 3 Martinique/1243/1999.
Experiment [15] concerns the target HLA-B*15:01. The experiment in a line: IEDB peptide-MHC binding, purified MHC/direct/fluorescence; filed as Kd, often an IC50 or EC50 that approximates it; ≥ and ≤ were set here for values at or beyond the usual limits of such assays. The settings on record: source organism: Mycobacterium tuberculosis str. Haarlem.
Where [16] appears, read: source organism: Yersinia pestis Nepal516.
Where [17] appears, read: source organism: Dengue virus 2 Jamaica/1409/1983.
Setting [18] is: source organism: Dengue virus 3 China/80-2/1980.
Setting [19] is: source organism: Dengue virus 4 Philippines/H241/1956.
Where [20] appears, read: source organism: Dengue virus 3 Martinique/1243/1999.
The mark [21] stands for this setting: source organism: Salmonella enterica subsp. enterica serovar Typhi.
Setting [22] is: source organism: Neembucu hantavirus.
The mark [23] stands for this setting: source organism: Escherichia coli 101-1.
[24] abbreviates: source organism: Dengue virus 1 Singapore/S275/1990.
The mark [25] stands for this setting: source organism: Burkholderia mallei ATCC 23344.
The mark [26] stands for this setting: source organism: Dengue virus 2 16681-PDK53.
Setting [27] is: source organism: Dengue virus 2 Thailand/NGS-C/1944.
[28] abbreviates: source organism: Giardia lamblia ATCC 50803.

DLKRKFYTL gave a Kd in the experiment with HLA-B*08:02 (source organism: Campylobacter jejuni subsp. jejuni 81116) of 154 nM.
On to GIRGFPRCR, for which the IC50 is 1060 nM with HLA-A*03:01 [1], 42100 nM with HLA-A*11:01 and at least 451000 nM with HLA-B*07:02.
Regarding RTLDTLALY, the Kd with HLA-A*03:01 [2] was 132 nM; with HLA-B*58:01 (setting [16]) it was 8.4 nM; with HLA-A*01:01 [3], 1210 nM; in the experiment with HLA-A*26:01 [4] (setting [16]), 4500 nM.
With KTAVVVTRY, the Kd with HLA-A*03:01 [2] was found to be 676 nM; with HLA-B*58:01 (setting [16]), 36.2 nM; with HLA-B*15:01 [5], 674 nM; with HLA-A*01:01 [3], 455 nM.
Take TLGMCCIITA: the results for the Kd with HLA-A*02:01 [6] (setting [17]) and with HLA-A*02:17 (setting [17]) were 67.4 nM and 16900 nM, respectively.
Take LLLGLMILLT: the Kd in the experiment with HLA-A*02:01 [6] (setting [18]) was 1660 nM; with HLA-A*02:17 (setting [18]), 697 nM.
GPAAEGIYI registered an IC50 with HLA-B*07:02 of 60400 nM.
For RMVLAFITFL, the Kd with HLA-A*02:01 [6] (setting [19]) is 3.25 nM; in the experiment with HLA-A*02:17 (setting [19]), 1.76 nM.
VLFTFVLLL: the Kd in the experiment with HLA-A*32:01 was found to be 494 nM; with HLA-A*02:17 (setting [18]) it was 568 nM.
Consider RLITANPVV, for which the Kd with HLA-A*02:06 (setting [20]) turned out to be 65.1 nM; with HLA-A*02:03 [7] (setting [20]), 36.3 nM; with HLA-A*02:17 (setting [18]), 520 nM.
Take HEAEYNLSL: the Kd with HLA-B*40:01 (setting [21]) is 4.6 nM; with HLA-B*39:01 (setting [21]), 1.9 nM.
Turning to ETESATLFT, the Kd in the experiment with HLA-B*15:17, with HLA-B*51:01, with HLA-A*02:01 [8] (setting [22]), with HLA-B*27:03, with HLA-A*26:01 [4] (setting [22]) and in the experiment with HLA-B*57:01 was at least 20000 nM each time. Also, the Kd with HLA-B*18:01, with HLA-B*39:01 (setting [22]), with HLA-B*46:01, in the experiment with HLA-A*03:01 [9], with HLA-A*23:01 and in the experiment with HLA-A*24:03 was at least 20000 nM each time. Further, the Kd was at least 20000 nM in the experiment with HLA-A*02:12; 592 nM in the experiment with HLA-A*01:01 [10]; at least 20000 nM with HLA-A*68:02; at least 20000 nM in the experiment with HLA-A*02:19; at least 20000 nM with HLA-A*02:03 [11].
In the case of FEANALSVI, the Kd with HLA-B*40:01 (setting [23]) stood at 9.7 nM; with HLA-B*39:01 (setting [23]), 3820 nM.
Take AIYGAAFSGV: the Kd with HLA-A*02:01 [6] (setting [17]) worked out at 1.05 nM; in the experiment with HLA-A*02:06 (setting [17]), 4.57 nM; with HLA-A*02:03 [7] (setting [17]), 8.6 nM; with HLA-A*02:17 (setting [17]), 627 nM.
For the sequence LLFKTSVGV, the Kd was determined as 3.22 nM with HLA-A*02:01 [6] (setting [24]), 9.08 nM with HLA-A*02:03 [7] (setting [24]) and 90.3 nM with HLA-A*02:17 (setting [24]).
As to TELRTFSIL, the IC50 with HLA-A*24:02 is 8430 nM; with HLA-A*02:01 [12] it was at least 395000 nM; with HLA-B*07:02, 50300 nM.
Consider RLRRRRHPL, for which the Kd was at least 20000 nM in the experiment with HLA-A*02:01 [8] (setting [25]), at least 20000 nM with HLA-C*06:02 and 1190 nM with HLA-B*08:02 (setting [25]).
As to YQLWTALISL, the Kd with HLA-B*08:01 (setting [20]) came to 1320 nM; in the experiment with HLA-A*02:01 [6] (setting [20]), 18.8 nM; with HLA-B*15:01 [13], 5.62 nM; with HLA-A*02:06 (setting [20]) it was 1.75 nM; with HLA-A*02:17 (setting [20]), 104 nM.
Consider ELKGMSYAM, for which the figures for the Kd with HLA-A*26:01 [14] and with HLA-B*08:02 (source organism: dengue virus type 3) were 1740 nM and at least 20000 nM, respectively.
Consider MSLMTGEQF, for which the dissociation constant (Kd) with HLA-B*58:01 (source organism: Bacillus anthracis str. A0488) came to 16.5 nM.
As to IASLTGWQW, the Kd with HLA-B*58:01 (source organism: Mycobacterium tuberculosis variant bovis BCG str. Pasteur 1173P2) was 0.6 nM; with HLA-B*15:01 [15] it was 16000 nM.
In the case of LQMENKAWLV, the Kd with HLA-B*08:01 (setting [26]) worked out at 6750 nM; in the experiment with HLA-A*02:01 [6] (setting [27]) it was 10.1 nM; with HLA-A*02:06 (setting [26]), 1.17 nM; with HLA-A*02:17 (setting [27]), 142 nM.
Turning to YARLRKEVL, the figures for the Kd in the experiment with HLA-A*02:01 [8] (setting [28]) and with HLA-B*08:02 (setting [28]) were at least 20000 nM and 350 nM, respectively.
Turning to LPAAPDGIR, in the experiment with HLA-B*07:02, the IC50 was 54700 nM.
